{
  "source": "patent EP2415863A1",
  "about": "“Mutant glucose oxidase” (B.R.A.I.N., priority 2010, dated 2012)",
  "proteins": {"B1": {"name": "Aspergillus niger glucose oxidase (GOx), wild type, SEQ ID NO: 3 (Aspergillus niger) (protein)", "chain": "SNGIEASLLTDPKDVSGRTVDYIIAGGGLTGLTTAARLTENPNISVLVIESGSYESDRGPIIEDLNAYGDIFGSSVDHAYETVELATNNQTALIRSGNGLGGSTLVNGGTWTRPHKAQVDSWETVFGNEGWNWDNVAAYSLQAERARAPNAKQIAAGHYFNASCHGVNGTVHAGPRDTGDDYSPIVKALMSAVEDRGVPTKKDFGCGDPHGVSMFPNTLHEDQVRSDAAREWLLPNYQRPNLQVLTGQYVGKVLLSQNGTTPRAVGVEFGTHKGNTHNVYAKHEVLLAAGSAVSPTILEYSGIGMKSILEPLGIDTVVDLPVGLNLQDQTTATVRSRITSAGAGQGQAAWFATFNETFGDYSEKAHELLNTKLEQWAEEAVARGGFHNTTALLIQYENYRDWIVNHNVAYSELFLDTAGVASFDVWDLLPFTRGYVHILDKDPYLHHFAYDPQYFLNELDLLGQAAATQLARNISNSGAMQTYFAGETIPGDNLAYDADLSAWTEYIPYHFRPNYHGVGTCSMMPKEMGGVVDNAARVYGVQGLRVIDGSIPPTQMSSHVMTVFYAMALKISDAILEDYASMQ", "notes": "made in house; host or cells: Saccharomyces cerevisiae (pYES2 vector)"}, "B2": {"name": "Aspergillus niger glucose oxidase (GOx) variant M12, N2Y, K13E, T30V, I94V, K152R, SEQ ID NO: 1 (Aspergillus niger; I116V/K174R/K35E/N24Y/T52V) (protein)", "chain": "SYGIEASLLTDPEDVSGRTVDYIIAGGGLVGLTTAARLTENPNISVLVIESGSYESDRGPIIEDLNAYGDIFGSSVDHAYETVELATNNQTALVRSGNGLGGSTLVNGGTWTRPHKAQVDSWETVFGNEGWNWDNVAAYSLQAERARAPNARQIAAGHYFNASCHGVNGTVHAGPRDTGDDYSPIVKALMSAVEDRGVPTKKDFGCGDPHGVSMFPNTLHEDQVRSDAAREWLLPNYQRPNLQVLTGQYVGKVLLSQNGTTPRAVGVEFGTHKGNTHNVYAKHEVLLAAGSAVSPTILEYSGIGMKSILEPLGIDTVVDLPVGLNLQDQTTATVRSRITSAGAGQGQAAWFATFNETFGDYSEKAHELLNTKLEQWAEEAVARGGFHNTTALLIQYENYRDWIVNHNVAYSELFLDTAGVASFDVWDLLPFTRGYVHILDKDPYLHHFAYDPQYFLNELDLLGQAAATQLARNISNSGAMQTYFAGETIPGDNLAYDADLSAWTEYIPYHFRPNYHGVGTCSMMPKEMGGVVDNAARVYGVQGLRVIDGSIPPTQMSSHVMTVFYAMALKISDAILEDYASMQ", "notes": "made in house; host or cells: Saccharomyces cerevisiae (pYES2)"}, "B3": {"name": "Aspergillus niger glucose oxidase (GOx) parent mutant B11, T30V, I94V, SEQ ID NO: 5 (Aspergillus niger; I116V/T52V) (protein)", "chain": "SNGIEASLLTDPKDVSGRTVDYIIAGGGLVGLTTAARLTENPNISVLVIESGSYESDRGPIIEDLNAYGDIFGSSVDHAYETVELATNNQTALVRSGNGLGGSTLVNGGTWTRPHKAQVDSWETVFGNEGWNWDNVAAYSLQAERARAPNAKQIAAGHYFNASCHGVNGTVHAGPRDTGDDYSPIVKALMSAVEDRGVPTKKDFGCGDPHGVSMFPNTLHEDQVRSDAAREWLLPNYQRPNLQVLTGQYVGKVLLSQNGTTPRAVGVEFGTHKGNTHNVYAKHEVLLAAGSAVSPTILEYSGIGMKSILEPLGIDTVVDLPVGLNLQDQTTATVRSRITSAGAGQGQAAWFATFNETFGDYSEKAHELLNTKLEQWAEEAVARGGFHNTTALLIQYENYRDWIVNHNVAYSELFLDTAGVASFDVWDLLPFTRGYVHILDKDPYLHHFAYDPQYFLNELDLLGQAAATQLARNISNSGAMQTYFAGETIPGDNLAYDADLSAWTEYIPYHFRPNYHGVGTCSMMPKEMGGVVDNAARVYGVQGLRVIDGSIPPTQMSSHVMTVFYAMALKISDAILEDYASMQ", "notes": "made in house; host or cells: Saccharomyces cerevisiae (pYES2 plasmid B11 GOx)"}},
  "assay_type_in_all_cases": "biochemical, Aspergillus niger",
  "key": {"[1]": {"substrate": "OC[C@H]1OC(O)[C@H](O)[C@@H](O)[C@@H]1O", "test": "Kinetic constants by ABTS assay, wt GOx", "conditions": "other: wt GOx, 2.5-100 mM glucose", "source_text": "(§1) For detection of GOx activity the ABTS assay was used. 2,2'-azino-bis(3-ethylbenzthiazoline-6-sulphonic acid (ABTS) is commonly used as a substrate with hydrogen peroxide for a peroxidase generating enzyme. Its use allows the reaction kinetics of peroxidases to be followed, to indirectly follow the reaction kinetics of a hydrogen peroxide-producing enzyme or to quantify the amount of hydrogen peroxide in a sample [vanGijlswijk, R.P.M., et al., Fluorochrome-labeled tyramides: Use in immunocytochemistry and fluorescence in situ hybridization. Journal of Histochemistry & Cytochemistry, 1997. 45(3): p. 375-382].\n(§2) The kinetic constants were determined using the Specord 200 from (Analytik Jena, Germany) and the ABTS assay [Zhu, Z.W., et al. 2006, Making glucose oxidase fit for biofuel cell applications by directed protein evolution. Biosensors & Bioelectronics, 21(11): 2046-2051]. The measurements were performed in 1 ml of reaction volume and 1 cm light pathway cuvettes, using 2.5, 5, 10, 25, 50 and 100 mM glucose. The data were fitted using Origin 6 (OriginLab Corporation, Northampton)."}, "[2]": {"substrate": "OC[C@H]1OC(O)[C@H](O)[C@@H](O)[C@@H]1O", "test": "Kinetic constants by ABTS assay, GOx mutant M12", "conditions": "other: M12, 2.5-100 mM glucose", "source_text": "as §1, §2"}, "[3]": {"substrate": "OC[C@H]1OC(O)[C@H](O)[C@@H](O)[C@@H]1O", "test": "Kinetic constants by ABTS assay, parent GOx B11", "conditions": "other: Parent GOx (B11), 2.5-100 mM glucose", "source_text": "as §1, §2"}},
  "data": [
    {"protein": "B1", "values": [
      {"measurement": "Km", "setting": "[1]", "result": 22.0, "unit": "mM mM"}
    ]},
    {"protein": "B2", "values": [
      {"measurement": "Km", "setting": "[2]", "result": 18.1, "unit": "mM mM"},
      {"measurement": "kcat", "setting": "[2]", "result": 150, "unit": "s-1 s-1"}
    ]},
    {"protein": "B3", "values": [
      {"measurement": "Km", "setting": "[3]", "result": 16.0, "unit": "mM mM"},
      {"measurement": "kcat", "setting": "[3]", "result": 80.0, "unit": "S-^1 S-^1"}
    ]}
  ]
}
